Test results published in patent publication US20230212587A1, “Mutant Hydroxyphenylpyruvate Dioxygenase Polypeptide, Encoding Gene Thereof and Use Therefor” (Beijing Dabeinong Biotechnology Co., Ltd., priority 2019, published 2023).

System: Arabidopsis thaliana T1 plants
Experiment: Topramezone tolerance of transgenic Arabidopsis thaliana T1 plants (pesticide damage grade by bleached leaf area, score, resistance evaluation)
Assay type: in vivo
Set-up: score: scale not given here
Conditions: for tolerance to topramezone, in words: saturation mutation of HPPD from Avena sativa source (label F372X = AsHPPDm-F372X), topramezone 25, 50, 100 g ai/ha; for Resistance Grade / score / Grade 0 / Grade 1 / Grade 2 / Grade 3: HPPD from Avena sativa source; for Grade 0 / Grade 1 / Grade 2 / Grade 3: number of plants
Excerpt: The Arabidopsisthaliana T1 plants into which the AsHPPDm-F372A-02 nucleotide sequence was introduced, Arabidopsis thaliana T1 plants into which the AsHPPD-02 nucleotide sequence was introduced and wild-type Arabidopsisthaliana plants (18 days after sowing) were sprayed with topramezone at four different concentrations, i.e., 25 g ai/ha (one-fold field concentration, 1×), 50 g ai/ha (two-fold field concentration, 2×), 100 g ai/ha (four-fold field concentration, 4×) and 0 g ai/ha (water, 0×) to determine the tolerance of Arabidopsisthaliana to the herbicide. The degree of damage caused by the herbicide was measured for each plant according to the proportion of bleached leaf area (the proportion of bleached leaf area=bleached leaf area/total leaf area×100%) 7 days after spraying (7 DAT): the case where there is basically no bleached phenotype is defined as grade 0, the case where the proportion of bleached leaf area is less than 50% is defined as grade 1,the case where the proportion of bleached leaf area is more than 50% is defined as grade 2, and the case where the proportion of bleached leaf area is 100% grade is defined as grade 3.
According to the method as described above in point 6 of Example 1, the aforementioned Arabidopsisthaliana T1 plants and wild-type Arabidopsisthaliana plants (18 days after sowing) were sprayed with topramezone at three different concentrations respectively, i.e., 25 g ai/ha (one-fold field concentration, 1×), 100 g ai/ha (four-fold field concentration, 4×) and 0 g ai/ha(water, 0×) to detect the tolerance of Arabidopsisthaliana to the herbicide.
According to the method as described above in point 6 of Example 1, the aforementioned Arabidopsisthaliana T1 plants and wild-type Arabidopsisthaliana plants (18 days after sowing) were sprayed with topramezone at three different concentrations respectively, i.e., 25 g ai/ha (one-fold field concentration, 1x), 100 g ai/ha (four-fold field concentration, 4x) and 0 g ai/ha (water, 0x) to detect the tolerance of Arabidopsisthaliana to the herbicide.
According to the method as described above in point 6 of Example 1, the above-mentioned Arabidopsisthaliana T1 plants, Arabidopsisthaliana T1 plants into which the AsHPPD-02 nucleotide sequence was introduced, Arabidopsisthaliana T1 plants into which the PfHPPD-02 nucleotide sequence was introduced, and wild-type Arabidopsisthaliana plants (18 days after sowing) were sprayed with topramezone at four different concentrations respectively, that is, 25 g ai/ha (one-fold field concentration, 1x), 50 g ai/ha (two-fold field concentration, 2x), 100 g ai/ha (four-fold field concentration, 4x) and 0 g ai/ha (water, Ox) to detect the herbicide tolerance of Arabidopsisthaliana.
According to the method as described in point 6 of Example 1, the above-mentioned Arabidopsisthaliana T1 plants and wild-type Arabidopsisthaliana plants (18 days after sowing) were sprayed with topramezone at two different concentrations respectively, that is, 25 g ai/ha (one-fold field concentration, 1x) and 100 g ai/ha (four-fold field concentration, 4x) to detect the herbicide tolerance of Arabidopsisthaliana,. […]

B1: F372G (protein, listed as Avena sativa)
chain: MPPTPATATGAAAAAVTPEHAARSFPRVVRVNPRSDRFPVLSFHHVELWCADAASAAGRFSFALGAPLAARSDLSTGNSAHASLLLRSGALAFLFTAPYAPPPQEAATAAATASIPSFSADAARTFAAAHGLAVRSVGVRVADAAEAFRVSVAGGARPAFAPADLGHGFGLAEVELYGDVVLRFVSYPDETDLPFLPGFERVSSPGAVDYGLTRFDHVVGNVPEMAPVIDYMKGFLGFHEFAEFTAEDVGTTESGLNSVVLANNSEAVLLPLNEPVHGTKRRSQIQTYLEYHGGPGVQHIALASNDVLRTLREMRARTPMGGFEFMAPPQAKYYEGVRRIAGDVLSEEQIKECQELGVLVDRDDQGVLLQIGTKPVGDRPTFFLEMIQRIGCMEKDEVGQEYQKGGCGGFGKGNFSELFKSIEDYEKSLEVKQSVVAQKS
modifications: AsHPPD Amido Acid Sequence
0: score (topramezone 25 g ai/ha (1x)) | Grade 1 (topramezone 25 g ai/ha (1x)) | Grade 2 (topramezone 25 g ai/ha (1x)) | Grade 3 (topramezone 25 g ai/ha (1x)) | score (topramezone 50 g ai/ha (2x)) | Grade 1 (topramezone 50 g ai/ha (2x)) | Grade 2 (topramezone 50 g ai/ha (2x)) | Grade 3 (topramezone 50 g ai/ha (2x)) | score (topramezone 100 g ai/ha (4x)) | Grade 1 (topramezone 100 g ai/ha (4x)) | Grade 2 (topramezone 100 g ai/ha (4x)) | Grade 3 (topramezone 100 g ai/ha (4x))
better tolerance: tolerance to topramezone, in words
Highly resistant: Resistance Grade (topramezone 25 g ai/ha (1x)) | Resistance Grade (topramezone 50 g ai/ha (2x)) | Resistance Grade (topramezone 100 g ai/ha (4x))
20: Grade 0 (topramezone 25 g ai/ha (1x)) | Grade 0 (topramezone 50 g ai/ha (2x)) | Grade 0 (topramezone 100 g ai/ha (4x))

B2: F372I (protein, listed as Avena sativa)
chain: MPPTPATATGAAAAAVTPEHAARSFPRVVRVNPRSDRFPVLSFHHVELWCADAASAAGRFSFALGAPLAARSDLSTGNSAHASLLLRSGALAFLFTAPYAPPPQEAATAAATASIPSFSADAARTFAAAHGLAVRSVGVRVADAAEAFRVSVAGGARPAFAPADLGHGFGLAEVELYGDVVLRFVSYPDETDLPFLPGFERVSSPGAVDYGLTRFDHVVGNVPEMAPVIDYMKGFLGFHEFAEFTAEDVGTTESGLNSVVLANNSEAVLLPLNEPVHGTKRRSQIQTYLEYHGGPGVQHIALASNDVLRTLREMRARTPMGGFEFMAPPQAKYYEGVRRIAGDVLSEEQIKECQELGVLVDRDDQGVLLQIITKPVGDRPTFFLEMIQRIGCMEKDEVGQEYQKGGCGGFGKGNFSELFKSIEDYEKSLEVKQSVVAQKS
modifications: AsHPPD Amido Acid Sequence
better tolerance: tolerance to topramezone, in words

B3: F372Q (protein, listed as Avena sativa)
chain: MPPTPATATGAAAAAVTPEHAARSFPRVVRVNPRSDRFPVLSFHHVELWCADAASAAGRFSFALGAPLAARSDLSTGNSAHASLLLRSGALAFLFTAPYAPPPQEAATAAATASIPSFSADAARTFAAAHGLAVRSVGVRVADAAEAFRVSVAGGARPAFAPADLGHGFGLAEVELYGDVVLRFVSYPDETDLPFLPGFERVSSPGAVDYGLTRFDHVVGNVPEMAPVIDYMKGFLGFHEFAEFTAEDVGTTESGLNSVVLANNSEAVLLPLNEPVHGTKRRSQIQTYLEYHGGPGVQHIALASNDVLRTLREMRARTPMGGFEFMAPPQAKYYEGVRRIAGDVLSEEQIKECQELGVLVDRDDQGVLLQIQTKPVGDRPTFFLEMIQRIGCMEKDEVGQEYQKGGCGGFGKGNFSELFKSIEDYEKSLEVKQSVVAQKS
modifications: AsHPPD Amido Acid Sequence
20: Grade 0 (topramezone 25 g ai/ha (1x)) | Grade 0 (topramezone 50 g ai/ha (2x)) | Grade 0 (topramezone 100 g ai/ha (4x))
0: score (topramezone 25 g ai/ha (1x)) | Grade 1 (topramezone 25 g ai/ha (1x)) | Grade 2 (topramezone 25 g ai/ha (1x)) | Grade 3 (topramezone 25 g ai/ha (1x)) | score (topramezone 50 g ai/ha (2x)) | Grade 1 (topramezone 50 g ai/ha (2x)) | Grade 2 (topramezone 50 g ai/ha (2x)) | Grade 3 (topramezone 50 g ai/ha (2x)) | score (topramezone 100 g ai/ha (4x)) | Grade 1 (topramezone 100 g ai/ha (4x)) | Grade 2 (topramezone 100 g ai/ha (4x)) | Grade 3 (topramezone 100 g ai/ha (4x))
better tolerance: tolerance to topramezone, in words
Highly resistant: Resistance Grade (topramezone 25 g ai/ha (1x)) | Resistance Grade (topramezone 50 g ai/ha (2x)) | Resistance Grade (topramezone 100 g ai/ha (4x))

B4: F372N (protein, listed as Avena sativa)
chain: MPPTPATATGAAAAAVTPEHAARSFPRVVRVNPRSDRFPVLSFHHVELWCADAASAAGRFSFALGAPLAARSDLSTGNSAHASLLLRSGALAFLFTAPYAPPPQEAATAAATASIPSFSADAARTFAAAHGLAVRSVGVRVADAAEAFRVSVAGGARPAFAPADLGHGFGLAEVELYGDVVLRFVSYPDETDLPFLPGFERVSSPGAVDYGLTRFDHVVGNVPEMAPVIDYMKGFLGFHEFAEFTAEDVGTTESGLNSVVLANNSEAVLLPLNEPVHGTKRRSQIQTYLEYHGGPGVQHIALASNDVLRTLREMRARTPMGGFEFMAPPQAKYYEGVRRIAGDVLSEEQIKECQELGVLVDRDDQGVLLQINTKPVGDRPTFFLEMIQRIGCMEKDEVGQEYQKGGCGGFGKGNFSELFKSIEDYEKSLEVKQSVVAQKS
modifications: AsHPPD Amido Acid Sequence
better tolerance: tolerance to topramezone, in words
0: Grade 1 (topramezone 25 g ai/ha (1x)) | Grade 3 (topramezone 25 g ai/ha (1x)) | score (topramezone 50 g ai/ha (2x)) | Grade 1 (topramezone 50 g ai/ha (2x)) | Grade 2 (topramezone 50 g ai/ha (2x)) | Grade 3 (topramezone 50 g ai/ha (2x)) | score (topramezone 100 g ai/ha (4x)) | Grade 1 (topramezone 100 g ai/ha (4x)) | Grade 2 (topramezone 100 g ai/ha (4x)) | Grade 3 (topramezone 100 g ai/ha (4x))
20: Grade 0 (topramezone 50 g ai/ha (2x)) | Grade 0 (topramezone 100 g ai/ha (4x))
7: score (topramezone 25 g ai/ha (1x))
Highly resistant: Resistance Grade (topramezone 25 g ai/ha (1x)) | Resistance Grade (topramezone 50 g ai/ha (2x)) | Resistance Grade (topramezone 100 g ai/ha (4x))
18: Grade 0 (topramezone 25 g ai/ha (1x))
2: Grade 2 (topramezone 25 g ai/ha (1x))

B5: F372V (protein, listed as Avena sativa)
chain: MPPTPATATGAAAAAVTPEHAARSFPRVVRVNPRSDRFPVLSFHHVELWCADAASAAGRFSFALGAPLAARSDLSTGNSAHASLLLRSGALAFLFTAPYAPPPQEAATAAATASIPSFSADAARTFAAAHGLAVRSVGVRVADAAEAFRVSVAGGARPAFAPADLGHGFGLAEVELYGDVVLRFVSYPDETDLPFLPGFERVSSPGAVDYGLTRFDHVVGNVPEMAPVIDYMKGFLGFHEFAEFTAEDVGTTESGLNSVVLANNSEAVLLPLNEPVHGTKRRSQIQTYLEYHGGPGVQHIALASNDVLRTLREMRARTPMGGFEFMAPPQAKYYEGVRRIAGDVLSEEQIKECQELGVLVDRDDQGVLLQIVTKPVGDRPTFFLEMIQRIGCMEKDEVGQEYQKGGCGGFGKGNFSELFKSIEDYEKSLEVKQSVVAQKS
modifications: AsHPPD Amido Acid Sequence
20: Grade 0 (topramezone 25 g ai/ha (1x)) | Grade 0 (topramezone 50 g ai/ha (2x)) | Grade 0 (topramezone 100 g ai/ha (4x))
Highly resistant: Resistance Grade (topramezone 25 g ai/ha (1x)) | Resistance Grade (topramezone 50 g ai/ha (2x)) | Resistance Grade (topramezone 100 g ai/ha (4x))
better tolerance: tolerance to topramezone, in words
0: score (topramezone 25 g ai/ha (1x)) | Grade 1 (topramezone 25 g ai/ha (1x)) | Grade 2 (topramezone 25 g ai/ha (1x)) | Grade 3 (topramezone 25 g ai/ha (1x)) | score (topramezone 50 g ai/ha (2x)) | Grade 1 (topramezone 50 g ai/ha (2x)) | Grade 2 (topramezone 50 g ai/ha (2x)) | Grade 3 (topramezone 50 g ai/ha (2x)) | score (topramezone 100 g ai/ha (4x)) | Grade 1 (topramezone 100 g ai/ha (4x)) | Grade 2 (topramezone 100 g ai/ha (4x)) | Grade 3 (topramezone 100 g ai/ha (4x))
